Laboratory results taken from the supplement of paper PMC10567573.

B1: ZNF511 (parent)
chain: AAPFRFVARPVRFPREHQFFEDGD

Variants of: B1
Experiment: protein stability index of a GFP-peptide fusion (GPS, HEK-293T) (PSI 1-6); higher = more stable
Conditions: c terminus: a fixed tail appended
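Further: lentivirally expressed fusions sorted by FACS into six bins by GFP to DsRed ratio, PSI derived from sequencing read proportions per bin multiplied by bin number.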

Variant	protein stability index
AAPFRFVARPVRFPRVHQFFEDGD [E16V]	2.34
AKPFRFVARPVRFPREHQFFEDGD [A2K]	2.01
AAPFRFVARPSRFPREHQFFEDGD [V11S]	2.34
AAPFRFVARPVRFPRERQFFEDGD [H17R]	2.29
ASPFRFVARPVRFPREHQFFEDGD [A2S]	3.91
AAPHRFVARPVRFPREHQFFEDGD [F4H]	4.58
AAPFRFVAREVRFPREHQFFEDGD [P10E]	1.81
AAPFRFVARPVRFPREHQFREDGD [F20R]	2.32
AAPFRFVARPVRFPREHPFFEDGD [Q18P]	2.05
AAPFRFVARPVKFPREHQFFEDGD [R12K]	2.29
AAPFRFVARPVRFPRSHQFFEDGD [E16S]	2.1
AAPFRFHARPVRFPREHQFFEDGD [V7H]	2.04
AAPFRFVARPVRFKREHQFFEDGD [P14K]	2.93
AAPFRFVARPVDFPREHQFFEDGD [R12D]	1.85
AAPFRFVARPVRFPREHQFFEDRD [G23R]	2.24
AAPFRFVARPVRFPREHQFFEDGS [D24S]	2.01
AAPFRFVAFPVRFPREHQFFEDGD [R9F]	1.56
AAPFRFVARPVRFPRESQFFEDGD [H17S]	2.2
AAPFSFVARPVRFPREHQFFEDGD [R5S]	4.16
AAPFRFVAHPVRFPREHQFFEDGD [R9H]	1.89
AAPFRFVARPVRPPREHQFFEDGD [F13P]	2.74
AAPFRFVARPVRFPREIQFFEDGD [H17I]	2.59
AAPFRFVARPVRFPREHQFFEDGA [D24A]	2.23
AAPFRFVARPVRFPREHQFFEDSD [G23S]	2.49

Variant	protein stability index
AAPFRFVARPVRFPREHQFFVDGD [E21V]	2.07
AAPFRFVARPVRFPREHQFFYDGD [E21Y]	1.92
AAPFRFVARPARFPREHQFFEDGD [V11A]	1.96
AAPFRFVERPVRFPREHQFFEDGD [A8E]	1.98
AAPFRFVARPVRFQREHQFFEDGD [P14Q]	2.15
AVPFRFVARPVRFPREHQFFEDGD [A2V]	1.53
AAPFRFVCRPVRFPREHQFFEDGD [A8C]	1.96
AAPFRFVARPVCFPREHQFFEDGD [R12C]	1.62
AAPFRHVARPVRFPREHQFFEDGD [F6H]	4.18
AAPWRFVARPVRFPREHQFFEDGD [F4W]	2.48
APPFRFVARPVRFPREHQFFEDGD [A2P]	2.32
AAPFRFVARPVRFPREHQFFEDID [G23I]	1.51
AAPFRFVARDVRFPREHQFFEDGD [P10D]	2.07
AAPFRFVARPVRFPREHIFFEDGD [Q18I]	2.26
AAPLRFVARPVRFPREHQFFEDGD [F4L]	3.65
AAPFRFVIRPVRFPREHQFFEDGD [A8I]	2.77
AAPFRFVARPVRFPREHQFFEDYD [G23Y]	2.35
AAPFRFVARPVRFPREHQFFEDGV [D24V]	2.73
AAPFRFVARPVRFPVEHQFFEDGD [R15V]	1.86
AAPFRFVARPMRFPREHQFFEDGD [V11M]	2.06
ALPFRFVARPVRFPREHQFFEDGD [A2L]	1.32
AAPFRFVARPVRFPREHQFFEDGK [D24K]	2.97
AAPFRFVARPVRFPDEHQFFEDGD [R15D]	1.72
AAPFRFVARPVRFPREHQCFEDGD [F19C]	2.08

Variant	protein stability index
AAPFRFVKRPVRFPREHQFFEDGD [A8K]	2.31
AAPFRFAARPVRFPREHQFFEDGD [V7A]	3.9
AAPFRFVDRPVRFPREHQFFEDGD [A8D]	1.3
AAPFGFVARPVRFPREHQFFEDGD [R5G]	3.68
AAPFRFVARPVRFPREHQFFHDGD [E21H]	2.5
AAPFRFVARPVRFPREHQFTEDGD [F20T]	2.5
AAPFRFVARPVRAPREHQFFEDGD [F13A]	2.25
AAPFRLVARPVRFPREHQFFEDGD [F6L]	3.47
AAPGRFVARPVRFPREHQFFEDGD [F4G]	4.57
AAPFRFVAYPVRFPREHQFFEDGD [R9Y]	1.84
AAPFRKVARPVRFPREHQFFEDGD [F6K]	4.36
AAPFRFVARPVRFIREHQFFEDGD [P14I]	2.33
AAPFRFVARPVRFPREHQFFENGD [D22N]	2.25
AAPFRFVARPVRFPGEHQFFEDGD [R15G]	1.74
AAPFRMVARPVRFPREHQFFEDGD [F6M]	4.13
AAPFRFVARPVRFPREHFFFEDGD [Q18F]	1.69
AAPFRFVARPVRFPREHAFFEDGD [Q18A]	2.77
AAPFRFVWRPVRFPREHQFFEDGD [A8W]	2.26
AAPFRFVARPVRFPREHQFFEDCD [G23C]	1.67
AAPFRFVARPVRFPREHQFFDDGD [E21D]	2
AAPFRFVARPVRFPREHQFFEDWD [G23W]	2.02
AAPFRFVARPVHFPREHQFFEDGD [R12H]	2.18
AAPFRFVARPVRFPEEHQFFEDGD [R15E]	2.06
AAPFRFVARPVRFPREGQFFEDGD [H17G]	2.29

Variant	protein stability index
AAPFRFVARIVRFPREHQFFEDGD [P10I]	4.18
AAPFRFVARKVRFPREHQFFEDGD [P10K]	2.77
AAPFRFTARPVRFPREHQFFEDGD [V7T]	3.23
AAPFRFVARPVTFPREHQFFEDGD [R12T]	2.62
AAPFRFVARPVRFDREHQFFEDGD [P14D]	2.26
AAPFNFVARPVRFPREHQFFEDGD [R5N]	4.22
AAPFRFVARPVRFPREWQFFEDGD [H17W]	1.72
AAPFRFNARPVRFPREHQFFEDGD [V7N]	3.28
AAPFRFVARPVRFWREHQFFEDGD [P14W]	1.34
AAPFRFVARPVRFPREHQFFEKGD [D22K]	1.52
AAPFRFVARPVGFPREHQFFEDGD [R12G]	2.1
AAPFRFVARPVRFPREHQMFEDGD [F19M]	3.14
AAPFRFVARPVNFPREHQFFEDGD [R12N]	2.37
AAPFRFVARPVRFPREHQFFEGGD [D22G]	2.34
AAPFRFCARPVRFPREHQFFEDGD [V7C]	2.65
AAPFRFVARPVRFPREHQFFEAGD [D22A]	1.94
AAPFRFVARPVRMPREHQFFEDGD [F13M]	2.72
AAPFRFVARPVRFPRFHQFFEDGD [E16F]	1.82
AAPFRFVAVPVRFPREHQFFEDGD [R9V]	2.14
AAPFRFVAAPVRFPREHQFFEDGD [R9A]	2.41
AAPNRFVARPVRFPREHQFFEDGD [F4N]	4.37
AAPFRCVARPVRFPREHQFFEDGD [F6C]	2.81
